The text below walks through data of US7422883.

This assay concerns the target β6 Δ746-764 deletion mutant expressed in SW480 cells (human) (UniProt P06756). In words: β6 immunoprecipitation (R6G9) from SW480 transfectants, blot with E10 (FIG. 27B).

A value given as a limit tells only on which side of the number the result lay.

Chain of β6 Δ746-764 deletion mutant expressed in SW480 cells (human) (chain, as listed by the source mutant, chain 1 of 2): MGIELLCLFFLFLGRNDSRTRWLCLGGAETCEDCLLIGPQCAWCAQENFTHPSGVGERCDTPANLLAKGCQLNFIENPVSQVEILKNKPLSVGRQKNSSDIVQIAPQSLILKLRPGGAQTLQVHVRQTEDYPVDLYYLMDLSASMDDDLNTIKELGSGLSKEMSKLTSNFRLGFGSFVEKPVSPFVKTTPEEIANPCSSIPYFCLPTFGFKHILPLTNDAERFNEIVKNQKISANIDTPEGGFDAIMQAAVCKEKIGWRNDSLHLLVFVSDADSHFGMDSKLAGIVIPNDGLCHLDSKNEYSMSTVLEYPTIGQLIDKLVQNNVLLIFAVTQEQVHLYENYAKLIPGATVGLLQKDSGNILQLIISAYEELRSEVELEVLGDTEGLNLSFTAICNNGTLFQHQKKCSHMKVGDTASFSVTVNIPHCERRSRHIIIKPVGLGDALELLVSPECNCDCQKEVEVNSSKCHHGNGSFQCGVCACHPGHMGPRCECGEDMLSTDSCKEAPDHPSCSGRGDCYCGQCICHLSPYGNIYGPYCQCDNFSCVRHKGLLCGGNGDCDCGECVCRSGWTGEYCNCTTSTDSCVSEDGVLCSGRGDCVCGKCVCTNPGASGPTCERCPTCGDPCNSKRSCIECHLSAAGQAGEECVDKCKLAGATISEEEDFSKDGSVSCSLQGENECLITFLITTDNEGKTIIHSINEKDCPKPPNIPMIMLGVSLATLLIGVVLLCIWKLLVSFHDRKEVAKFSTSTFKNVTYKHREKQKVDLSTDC
Chain of β6 Δ746-764 deletion mutant expressed in SW480 cells (human) (P06756 31-1048, stated change not applied, chain 2 of 2): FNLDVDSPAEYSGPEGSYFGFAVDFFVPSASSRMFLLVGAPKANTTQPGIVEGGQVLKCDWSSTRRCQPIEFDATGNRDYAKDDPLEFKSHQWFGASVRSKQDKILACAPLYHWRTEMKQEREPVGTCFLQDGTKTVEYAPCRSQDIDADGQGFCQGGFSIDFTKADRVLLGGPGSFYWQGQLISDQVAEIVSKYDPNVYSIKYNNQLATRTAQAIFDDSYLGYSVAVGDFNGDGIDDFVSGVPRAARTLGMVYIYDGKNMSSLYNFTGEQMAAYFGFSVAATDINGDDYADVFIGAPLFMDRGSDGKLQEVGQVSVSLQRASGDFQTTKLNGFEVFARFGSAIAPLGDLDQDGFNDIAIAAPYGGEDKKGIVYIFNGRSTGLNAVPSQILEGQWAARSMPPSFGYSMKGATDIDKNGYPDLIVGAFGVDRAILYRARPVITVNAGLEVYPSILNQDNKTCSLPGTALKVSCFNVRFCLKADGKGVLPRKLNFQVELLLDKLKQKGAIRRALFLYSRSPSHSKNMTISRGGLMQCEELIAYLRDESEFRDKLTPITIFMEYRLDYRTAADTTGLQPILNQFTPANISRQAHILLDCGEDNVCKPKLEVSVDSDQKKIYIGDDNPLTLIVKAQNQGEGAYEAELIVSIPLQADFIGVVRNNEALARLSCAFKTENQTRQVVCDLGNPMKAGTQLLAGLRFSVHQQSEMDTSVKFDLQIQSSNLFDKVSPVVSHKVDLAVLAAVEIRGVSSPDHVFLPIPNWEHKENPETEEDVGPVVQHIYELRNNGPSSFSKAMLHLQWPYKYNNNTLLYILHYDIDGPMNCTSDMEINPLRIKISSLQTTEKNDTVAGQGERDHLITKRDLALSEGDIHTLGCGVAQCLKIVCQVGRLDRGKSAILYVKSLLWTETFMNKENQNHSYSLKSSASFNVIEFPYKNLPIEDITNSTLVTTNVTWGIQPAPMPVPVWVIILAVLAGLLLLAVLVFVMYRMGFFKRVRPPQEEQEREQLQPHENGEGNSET

Turning to “ERK (endogenous ERK1/2, band at the position of ERK2, in lysates of human cell lines) (from UniProt P28482 2-360)”, the reduction of β6-bound ERK against the wild type receptor is more than 75%.
